Measurements: US20200371091A1, “BCMA-TARGETING CHIMERIC ANTIGEN RECEPTOR, AND USES THEREOF” (Novartis AG, priority 2017, published 2020)

How the values were obtained:
[1] = target: BCMA (B-cell maturation antigen) on the surface of cell lines (UniProt Q02223); test: flow cytometry on SuDHL-6 cells; Quantum Simply Cellular quantification kit
[2] = target: BCMA (B-cell maturation antigen) on the surface of cell lines (UniProt Q02223); test: flow cytometry on HBL-1 cells; Quantum Simply Cellular quantification kit
[3] = type: in vivo; settings: subject 03; 1.5 g/m2 on day 17 after high-dose steroids without improvement
Excerpt: This clinical trial was a phase 1 open-label study where the primary objective was safety.
The primary objective was to evaluate the safety of CART-BCMA in patients with relapsed/refractory myeloma. The primary endpoint was incidence of study-related grade 3 or higher AEs, including dose-limiting toxicities (DLTs). A DLT was defined as a serious AND unexpected AE whose relationship to study therapy could not be ruled out, occurring within 4 weeks of receiving protocol therapy.

Chain of BCMA (B-cell maturation antigen) on the surface of cell lines (Q02223 whole entry): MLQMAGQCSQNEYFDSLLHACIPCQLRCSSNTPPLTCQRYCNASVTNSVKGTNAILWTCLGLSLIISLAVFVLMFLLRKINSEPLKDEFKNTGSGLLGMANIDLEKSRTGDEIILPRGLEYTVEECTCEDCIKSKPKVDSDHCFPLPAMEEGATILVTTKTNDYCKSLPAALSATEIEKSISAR

Molecule	antibody binding capacity (ABC) [1]	antibody binding capacity (ABC) [2]	time to rapid neurologic improvement of PRES-like grade 4 neurotoxicity [3] [hours]
PE-labeled anti-BCMA antibody (Biolegend, cat #357504)	> 5000	> 5000	–
O=P1(N(CCCl)CCCl)NCCCO1 (stereo not drawn) [cyclophosphamide]	–	–	≤ 48
